Laboratory results reported in publication PMC4822050, “Hemi-methylated DNA opens a closed conformation of UHRF1 to facilitate its histone recognition” (Nature Communications, 2016).

Experiments:
PHD-SRA of UHRF1 (human) = experiment: ITC; 0.05 mM protein in the cell, 0.5 mM protein or peptide in the syringe, iTC200, 18 °C, 10 mM HEPES pH 8.0, 100 mM NaCl
SRA-Spacer (human) = target: T1, SRA-Spacer (human) (UniProt Q96T88); experiment: FP; settings: DNA length series; 5-methyl-dC (hemi-methylated CpG); ITC: 10 mM HEPES pH 8.0, 100 mM NaCl, 18 C; EMSA: 20 mM HEPES pH 7.5, 100 mM NaCl, 8% glycerol, 1 mM DTT, on ice; pull-down: 20 mM HEPES-NaOH pH 8.0, 100 mM …
T1 sequence: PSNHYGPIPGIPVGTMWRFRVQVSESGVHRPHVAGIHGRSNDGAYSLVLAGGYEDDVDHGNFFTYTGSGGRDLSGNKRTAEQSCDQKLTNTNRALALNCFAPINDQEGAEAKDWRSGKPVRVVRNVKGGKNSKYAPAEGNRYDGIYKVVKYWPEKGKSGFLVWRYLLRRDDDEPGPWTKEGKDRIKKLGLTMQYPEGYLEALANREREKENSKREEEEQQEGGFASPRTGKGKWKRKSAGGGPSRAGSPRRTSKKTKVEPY

SRA (human) = target: T2, SRA (human) (UniProt Q96T88); experiment: FP; settings: DNA length series; 5-methyl-dC (hemi-methylated CpG); ITC: 10 mM HEPES pH 8.0, 100 mM NaCl, 18 C; EMSA: 20 mM HEPES pH 7.5, 100 mM NaCl, 8% glycerol, 1 mM DTT, on ice; pull-down: 20 mM HEPES-NaOH pH 8.0, 100 mM …
T2 sequence: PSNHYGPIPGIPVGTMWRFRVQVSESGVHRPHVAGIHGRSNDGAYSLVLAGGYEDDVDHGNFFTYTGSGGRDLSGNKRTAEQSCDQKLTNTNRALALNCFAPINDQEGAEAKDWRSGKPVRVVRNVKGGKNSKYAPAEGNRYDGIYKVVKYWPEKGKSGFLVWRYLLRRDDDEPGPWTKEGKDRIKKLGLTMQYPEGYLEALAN

UHRF1 TTD, 134-285 = UHRF1 TTD, 134-285 (UniProt Q96T88); experiment: ITC; settings: reference: unmodified Spacer642–664 peptide; sites S651

Chain of UHRF1 Spacer, 642-664 (Q96T88 134-285, change not shown): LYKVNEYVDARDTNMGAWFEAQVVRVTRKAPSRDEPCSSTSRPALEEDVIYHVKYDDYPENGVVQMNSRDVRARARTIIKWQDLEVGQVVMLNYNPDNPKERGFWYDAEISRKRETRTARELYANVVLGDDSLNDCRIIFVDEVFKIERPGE

Row | fold decrease in binding affinity against the PHD alone (PHD-SRA of UHRF1 (human)) | binding against the reference (UHRF1 TTD, 134-285) | Substance | Kd (SRA-Spacer (human)) | Kd (SRA (human))
1 | 8 fold |  | H3 peptide (1–17) (from UniProt P68431 2-18) |  | 
2 |  |  | FAM-16bp-HM-DNA | 0.39 µM | 29.4 µM
3 |  | weaker | UHRF1 Spacer, 642-664 (from UniProt Q96T88) pS651 Spacer642–664 peptide |  | 
4 |  |  | FAM-20bp-HM-DNA | 0.4 µM | 9.59 µM
